pKd: −log10 of the molar value.

For orientation: pKd means the Kd on a negative log10 scale, so that one unit is a factor of ten.

Series [1] has as its system GST-Jazz (three zinc finger artificial transcription factor) (synthetic construct). Nature of the series: EMSA. Particulars: 50 uM ZnCl2; 5-96 nM protein; at 12 nM shift weaker than GST-UtroUp (Fig. 2C); EMSA: 20 mM Hepes pH 7.5, 0.5 mM DTT, 100 mM NaCl, 50 uM ZnCl2, 50 ug/ml BSA, 100 ng poly(dI-dC), 0.05% NP40, 5% glycerol; temperature not stated. For orientation: A gel shift assay detects complexes by their altered migration in electrophoresis.

Series [2] has as its system GST-UtroUp (six zinc finger artificial transcription factor) (synthetic construct). Put plainly: EMSA. Conditions: 50 uM ZnCl2; 1-90 nM protein; mean of five experiments; EMSA: 20 mM Hepes pH 7.5, 0.5 mM DTT, 100 mM NaCl, 50 uM ZnCl2, 50 ug/ml BSA, 100 ng poly(dI-dC), 0.05% NP40, 5% glycerol; temperature not stated.

As for “ATTAAGCCGGGCTGCTGCGGGCTGGGAGTATGATCC (double strand) [WT UtroUp (UtroUp-Jazz) DNA target]”, the pKd in series [1] was 7.49; in series [2] it was 8.46.

(Values after PMC3576267.)
